Earlier results, collected in patent US20260055200A1, “COMBINATION THERAPIES” (Alligator Bioscience AB, priority 2022, published 2026).
Read-outs that look alike come from different tables or passages of the source.

Assays:
[1] = tested on: previously untreated pancreatic cancer; settings: cited from earlier work
[2] = tested on: metastatic pancreatic cancer; settings: standard first-line treatment; cited from earlier work
[3] = tested on: metastatic pancreatic cancer; settings: PRODIGE 4, 342 patients; cited from earlier work
[4] = tested on: metastatic pancreatic cancer; settings: MPACT study; cited from earlier work
[5] = tested on: previously untreated metastatic pancreatic cancer; settings: cited from earlier work
[6] = in combination with Gem-NabPac with or without nivolumab

## Selicrelumab: CD40 agonistic monoclonal antibody, with an IgG2 format
[1]; 0.2 mg/kg dose level, with gemcitabine
  DLT: One DLT, a cerebrovascular accident
[1]; all grade 1-2, with gemcitabine
  proportion of patients with liver enzyme elevations: approximately ⅔
[1]; in combination with gemcitabine
  dose up to which the combination was well tolerated: up to 0.2 mg/kg
[1]; with gemcitabine
  complete responses: no complete responses (CR) were observed
  patients with cytokine release syndrome in relation to the infusion: 20 of the 22
  response rate: 19%

## Nc1ccn([C@@H]2O[C@H](CO)[C@@H](O)C2(F)F)c(=O)n1 [gemcitabine]
[2]
  median overall survival (mOS): about 6 months
[3]
  mOS: 6.8 months
  objective response rate (ORR): 9.4%
[4]
  ORR: 7%
  mOS: 6.7 months

B1: APX005M: CD40 agonistic monoclonal antibody, with a mutated IgG1 format for improved binding to FcγR2b (antibody, chains of the INN, looked up, V domains shown)
VH: QVQLVESGGGVVQPGRSLRLSCAASGFSFSSTYVCWVRQAPGKGLEWIACIYTGDGTNYSASWAKGRFTISKDSSKNTVYLQMNSLRAEDTAVYFCARPDITYGFAINFWGPGTLVTVSS
VL: DIQMTQSPSSLSASVGDRVTIKCQASQSISSRLAWYQQKPGKPPKLLIYRASTLASGVPSRFSGSGSGTDFTLTISSLQPEDVATYYCQCTGYGISWPIGGGTKVEIK
[5]; Total (N = 24)
  Complete Response, patients: 0
  Not Evaluable, patients (%): 1 (4%)
  Partial Response, patients (%): 13 (54%)
  Progressive Disease, patients (%): 1 (4%)
  Stable Disease, patients (%): 9 (38%)
[5]; [6]
  circulating mutant KRAS DNA: marked and rapid decrease
  immune profiling of PBMCs, myeloid compartment: rapid activation of DCs in most patients
